One may read the Kd as the concentration at which binding is half-saturated.

One series addresses T1, HEL (Homo sapiens, UniProt Q9UPY3).
T1 construct: gene DICER1; isolated helicase domain, residues 1-624, N-terminal His6 tag (pMCSG7), expressed in E. coli BL21Star, Ni-Sepharose purified
T1 sequence (Q9UPY3 1-624): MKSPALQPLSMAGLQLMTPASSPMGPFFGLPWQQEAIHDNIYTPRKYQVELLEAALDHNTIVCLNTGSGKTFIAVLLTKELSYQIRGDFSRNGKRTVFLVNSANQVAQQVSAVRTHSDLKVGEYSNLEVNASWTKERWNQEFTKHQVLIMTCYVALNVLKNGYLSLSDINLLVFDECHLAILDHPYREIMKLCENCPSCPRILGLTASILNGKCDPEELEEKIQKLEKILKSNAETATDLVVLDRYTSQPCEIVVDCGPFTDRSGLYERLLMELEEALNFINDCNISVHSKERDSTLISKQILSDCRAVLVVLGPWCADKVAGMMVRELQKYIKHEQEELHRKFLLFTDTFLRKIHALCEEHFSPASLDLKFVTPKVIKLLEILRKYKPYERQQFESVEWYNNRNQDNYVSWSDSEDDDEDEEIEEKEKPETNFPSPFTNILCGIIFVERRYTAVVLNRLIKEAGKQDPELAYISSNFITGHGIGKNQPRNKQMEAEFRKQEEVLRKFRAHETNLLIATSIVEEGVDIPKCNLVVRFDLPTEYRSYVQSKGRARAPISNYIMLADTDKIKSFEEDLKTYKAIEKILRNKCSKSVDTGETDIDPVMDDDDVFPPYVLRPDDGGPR
Put plainly: ATP hydrolysis, PAGE of released […]. The class given is biochemical. The note with it: labelled compound ([γ-32P]-ATP, 2 nM), HEL 2 nM (low turnover); 150 mM NaCl, 50 mM Tris-HCl pH 7.5, 2.5 mM MgCl2, 37 °C.

Series [1] concerns the target T2, WT hDicer (Homo sapiens, UniProt Q9UPY3, K70A).
T2 construct: gene DICER1; full-length, 1922 aa, ~220 kDa; expressed in human 293T NoDice cells and purified; K70A variant from Addgene plasmid 41589
Put plainly: EMSA with radiolabelled ATP. The conditions noted are these: labelled compound ([γ-32P]-ATP, 2 nM); 150 mM NaCl, 50 mM Tris-HCl pH 7.5, 2.5 mM MgCl2, 4 °C, no RNA; Walker A mutant; weak binding, Kd could not be determined. (A gel shift assay detects complexes by their altered migration in electrophoresis.)

The target of series [2] is T3, WT hDicer (Homo sapiens, UniProt Q9UPY3).
T3 construct: gene DICER1; full-length, 1922 aa, ~220 kDa; expressed in human 293T NoDice cells and purified; K70A variant from Addgene plasmid 41589
Put plainly: EMSA with radiolabelled ATP. Type of series: binding.

The target of series [3] is T4, HEL (hDicer helicase domain) (Homo sapiens, UniProt Q9UPY3 1-624).
T4 sequence: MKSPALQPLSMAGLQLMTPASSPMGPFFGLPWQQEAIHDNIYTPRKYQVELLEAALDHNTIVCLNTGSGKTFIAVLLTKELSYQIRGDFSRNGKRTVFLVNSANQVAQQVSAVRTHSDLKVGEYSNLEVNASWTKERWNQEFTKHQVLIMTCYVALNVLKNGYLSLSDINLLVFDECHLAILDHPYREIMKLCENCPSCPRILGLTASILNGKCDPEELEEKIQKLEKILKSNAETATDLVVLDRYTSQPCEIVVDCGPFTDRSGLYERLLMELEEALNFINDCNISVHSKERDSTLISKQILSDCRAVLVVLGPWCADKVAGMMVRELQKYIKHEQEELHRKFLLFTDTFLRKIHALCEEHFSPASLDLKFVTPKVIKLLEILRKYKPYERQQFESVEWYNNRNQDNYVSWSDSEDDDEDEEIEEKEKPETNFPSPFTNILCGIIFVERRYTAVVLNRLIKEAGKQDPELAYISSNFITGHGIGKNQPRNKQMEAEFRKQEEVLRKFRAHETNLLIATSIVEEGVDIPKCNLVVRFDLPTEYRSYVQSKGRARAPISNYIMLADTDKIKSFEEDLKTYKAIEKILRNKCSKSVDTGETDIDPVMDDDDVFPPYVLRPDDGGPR
Put plainly: EMSA; up to 95 uM HEL; 50 mM Tris-HCl pH 7.5, 150 mM NaCl; EMSA 15 min at room temperature (also 4 and 37 C), 5% native PAA gel in 1x TBE at 4 C; BLI 23 C. The note with it: protein: recombinant, tags: N-terminal His6 (pMCSG7).

For series [4], the target named is T4, HEL (hDicer helicase domain). Put plainly: BLI; 23 C, HEL immobilized; 50 mM Tris-HCl pH 7.5, 150 mM NaCl; EMSA 15 min at room temperature (also 4 and 37 C), 5% native PAA gel in 1x TBE at 4 C; BLI 23 C. The note with it: protein: recombinant; tags: N-terminal His6 (pMCSG7); label: 5' 32P (EMSA); none (BLI). (In general: Biolayer interferometry detects binding as a change in optical thickness at a sensor tip.)

For series [5] the target is unchanged. Put plainly: EMSA; room temperature; 50 mM Tris-HCl pH 7.5, 150 mM NaCl; EMSA 15 min at room temperature (also 4 and 37 C), 5% native PAA gel in 1x TBE at 4 C; BLI 23 C. The conditions noted are these: protein: recombinant; tags: N-terminal His6 (pMCSG7); label: 5' 32P; unstructured.
Series [6] has the same target. Put plainly: EMSA; distinct complex; 50 mM Tris-HCl pH 7.5, 150 mM NaCl; EMSA 15 min at room temperature (also 4 and 37 C), 5% native PAA gel in 1x TBE at 4 C; BLI 23 C. The note with it: protein: recombinant; tags: N-terminal His6 (pMCSG7); label: 5' 32P (EMSA); none (BLI).
Series [7] shares this target. Put plainly: EMSA; 37 C; 50 mM Tris-HCl pH 7.5, 150 mM NaCl; EMSA 15 min at room temperature (also 4 and 37 C), 5% native PAA gel in 1x TBE at 4 C; BLI 23 C. The conditions noted are these: protein: recombinant; tags: N-terminal His6 (pMCSG7); label: 5' 32P; unstructured.
The target is the same in series [8]. Put plainly: CD thermal melting; HEL transitions shift to 52 and 74 C; RNA transition 75 to 60 C; 50 mM Tris-HCl pH 7.5, 150 mM NaCl; EMSA 15 min at room temperature (also 4 and 37 C), 5% native PAA gel in 1x TBE at 4 C; BLI 23 C. The conditions noted are these: protein: recombinant; tags: N-terminal His6 (pMCSG7); label: 5' 32P (EMSA); none (BLI); partly self-paired (predicted).

Series [9] has the same target. Put plainly: SAXS; 1:1 complex; 50 mM Tris-HCl pH 7.5, 150 mM NaCl; EMSA 15 min at room temperature (also 4 and 37 C), 5% native PAA gel in 1x TBE at 4 C; BLI 23 C. The note with it: protein: recombinant, tags: N-terminal His6 (pMCSG7), label: 5' 32P (EMSA), hairpin.
For series [10] the target is unchanged. Put plainly: EMSA; 50 mM Tris-HCl pH 7.5, 150 mM NaCl; EMSA 15 min at room temperature (also 4 and 37 C), 5% native PAA gel in 1x TBE at 4 C; BLI 23 C. The conditions noted are these: protein: recombinant; tags: N-terminal His6 (pMCSG7); label: 5' 32P (EMSA); none (BLI).
Setting [11] is: label: 5' 32P on one strand, blunt.
Setting [12] is: label: 5' 32P on one strand, 3' overhang 2 nt on each end.

T2 sequence (Q9UPY3 whole entry K70A): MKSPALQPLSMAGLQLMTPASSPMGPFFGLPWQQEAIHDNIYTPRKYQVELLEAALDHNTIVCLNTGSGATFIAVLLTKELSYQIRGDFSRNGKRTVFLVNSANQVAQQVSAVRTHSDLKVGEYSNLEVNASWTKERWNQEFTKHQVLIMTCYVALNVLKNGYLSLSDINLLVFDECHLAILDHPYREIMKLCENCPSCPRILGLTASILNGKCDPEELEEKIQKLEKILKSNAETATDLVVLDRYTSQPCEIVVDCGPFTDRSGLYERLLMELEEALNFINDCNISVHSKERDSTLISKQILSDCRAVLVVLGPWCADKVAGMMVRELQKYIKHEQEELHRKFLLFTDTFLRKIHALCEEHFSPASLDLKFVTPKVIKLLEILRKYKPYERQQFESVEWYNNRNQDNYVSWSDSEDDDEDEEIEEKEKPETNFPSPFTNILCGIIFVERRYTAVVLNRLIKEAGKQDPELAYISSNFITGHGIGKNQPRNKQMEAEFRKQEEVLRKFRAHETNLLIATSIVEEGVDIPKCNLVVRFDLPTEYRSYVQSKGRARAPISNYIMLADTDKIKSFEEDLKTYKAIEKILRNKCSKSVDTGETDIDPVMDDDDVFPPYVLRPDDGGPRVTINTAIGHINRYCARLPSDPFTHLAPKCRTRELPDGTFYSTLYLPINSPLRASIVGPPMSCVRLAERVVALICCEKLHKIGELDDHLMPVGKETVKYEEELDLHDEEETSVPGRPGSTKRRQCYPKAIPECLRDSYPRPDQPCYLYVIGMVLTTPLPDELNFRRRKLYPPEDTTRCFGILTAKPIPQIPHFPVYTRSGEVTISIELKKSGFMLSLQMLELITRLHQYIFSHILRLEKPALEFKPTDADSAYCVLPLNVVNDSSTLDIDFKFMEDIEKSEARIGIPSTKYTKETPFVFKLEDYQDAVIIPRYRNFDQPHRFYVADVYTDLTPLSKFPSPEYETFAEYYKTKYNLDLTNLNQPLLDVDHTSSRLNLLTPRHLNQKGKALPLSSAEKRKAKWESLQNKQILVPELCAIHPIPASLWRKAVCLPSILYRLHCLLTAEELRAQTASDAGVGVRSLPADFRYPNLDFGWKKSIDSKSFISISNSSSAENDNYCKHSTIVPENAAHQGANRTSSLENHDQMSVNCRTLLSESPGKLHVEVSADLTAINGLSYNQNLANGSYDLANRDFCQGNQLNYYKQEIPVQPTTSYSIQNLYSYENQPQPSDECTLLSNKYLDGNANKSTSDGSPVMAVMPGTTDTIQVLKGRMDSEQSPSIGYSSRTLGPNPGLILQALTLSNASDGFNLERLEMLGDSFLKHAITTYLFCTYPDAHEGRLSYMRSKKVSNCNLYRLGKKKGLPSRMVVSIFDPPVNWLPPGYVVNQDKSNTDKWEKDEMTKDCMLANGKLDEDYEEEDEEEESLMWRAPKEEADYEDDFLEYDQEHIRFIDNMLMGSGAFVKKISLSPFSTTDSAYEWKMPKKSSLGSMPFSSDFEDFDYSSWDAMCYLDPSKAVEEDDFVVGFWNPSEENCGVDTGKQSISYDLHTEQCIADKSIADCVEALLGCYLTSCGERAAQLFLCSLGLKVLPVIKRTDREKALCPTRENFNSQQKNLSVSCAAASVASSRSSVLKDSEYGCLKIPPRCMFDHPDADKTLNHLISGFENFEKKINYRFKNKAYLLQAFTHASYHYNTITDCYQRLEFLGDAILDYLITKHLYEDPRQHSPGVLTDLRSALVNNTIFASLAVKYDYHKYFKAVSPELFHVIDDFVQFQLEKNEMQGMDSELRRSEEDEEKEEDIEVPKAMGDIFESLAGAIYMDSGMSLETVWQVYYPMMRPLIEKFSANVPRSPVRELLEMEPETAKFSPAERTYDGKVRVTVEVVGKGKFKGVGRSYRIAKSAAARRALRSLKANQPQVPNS

`Nc1ncnc2c1ncn2[C@@H]1O[C@H](COP(=O)(O)OP(=O)(O)OP(=O)(O)O)[C@@H](O)[C@H]1O` [ATP]: on HEL, the “ATP hydrolysis, PAGE of released 32Pi” value is “ATP was hydrolyzed in reactions carried out with HEL (Fig. 2a) and WT hDicer”. In addition, the “EMSA with radiolabelled ATP” value on WT hDicer [1] was “only weak ATP binding could be observed for hDicer_K70A”. In addition, at WT hDicer [2], the Kd is around 0.085 µM.

B1: dsRNA_blunt (dsRNA)
RNA 1: GUGCAUUGUAGUUGCAUUGCAUGUUCUGGUCA
RNA 2: UGACCAGAACAUGCAAUGCAACUACAAUGCAC
As to B1, in [3] (setting [11]), the binding result is reported as “no binding”.

B2: dsRNA_over (dsRNA)
RNA 1: GUGCAUUGUAGUUGCAUUGCAUGUUCUGGUCA
RNA 2: ACCAGAACAUGCAAUGCAACUACAAUGCACAU
On to B2, for which, in [3] (setting [12]), the binding result is on record as “no binding”.

B3: R56 (ssRNA)
RNA: GGGAGAAUCAUAAGUAGCGCAGUGAGUCGUUGUGCUGCCCAUGUUAACAGUUAGCC
With B3, the Kd in series [4] is around 23 µM.

Turning to GAATCTTAACGC (ssDNA) [D12], the binding result in [3] (label: 5' 32P) is given as “no binding”.

For the molecule ACACACACACACACACACACACACACACACACACACACACAC (ssRNA) [(AC)21], the binding result in series [5] is “binds”.

Consider GTGCATTGTAGTTGCATTGCATGTTCTGGTCA (ssDNA) [D32], for which the binding result in series [6] is listed as “binds”.

B4: dsDNA_blunt (dsDNA)
DNA 1: GTGCATTGTAGTTGCATTGCATGTTCTGGTCA
DNA 2: TGACCAGAACATGCAATGCAACTACAATGCAC
As to B4, the binding result in [3] (setting [11]) is “no binding”.

B5: dsDNA_over (dsDNA)
DNA 1: GTGCATTGTAGTTGCATTGCATGTTCTGGTCA
DNA 2: ACCAGAACATGCAATGCAACTACAATGCACAT
Regarding B5, the binding result in series [3] (setting [12]) is reported as “no binding”.

Regarding GAAUCUUAACGC (ssRNA) [R12], the binding result in [3] (label: 5' 32P) is “no binding”.

Consider CUCUCUCUCUCUCUCUCUCUCUCUCUCUCUCUCUCUCUCUCU (ssRNA) [(CU)21], for which, in series [7], the binding result was “binds”.

As for GGGAGAAUCAUAAGUAGCCUCCCCCCAUGUUAACAGUUAGCC (ssRNA) [R42], the binding result in [8] is “binds”.

B6: pre-mir-21 (structured_RNA)
RNA: AGCUUAUCAGACUGAUGUUGACUGUUGAAUCUCAUGGCAACACCAGUCGAUGGGCUGU
Consider B6, for which the binding result in [9] is reported as “binds”.

B7: D56 (ssDNA)
DNA: GGGAGAATCATAAGTAGCGCAGTGAGTCGTTGTGCTGCCCATGTTAACAGTTAGCC
As to B7, the values for the Kd in series [10] and in [4] were around 7.4 µM and around 21 µM, respectively.

B8: pre-mir-16-1 (structured_RNA)
RNA: UAGCAGCACGUAAAUAUUGGCGUUAAGAUUCUAAAAUUAUCUCCAGUAUUAACUGUGCUGCUGAA
Take B8: the binding result in series [9] (9-nt apical loop) is on record as “binds”.

Turning to GGGAGAATCATAAGTAGCCTCCCCCCATGTTAACAGTTAGCC (ssDNA) [D42], the Kd in [10] is around 8.5 µM; in [4], around 22 µM.

The values are drawn from publication PMC11658451, “The human Dicer helicase domain is capable of ATP hydrolysis and single-stranded nucleic acid binding” (BMC Biology, 2024).
